Laboratory results as given in PMC13022674, “Thymine DNA glycosylase binds to R-loops and excises 5-formyl and 5-carboxyl cytosine from DNA/RNA hybrids”.
Where a chain is given by its changes, count along the chain named.

Key:
[1] = target: T1, TDG (thymine DNA glycosylase) (human, UniProt Q13569 1-410); test: EMSA; Hill 2.9; EMSA: 5 nM substrate, 100 mM NaCl, 2.5 mM MgCl2, 10 mM Tris-HCl pH 7.5, 5% glycerol, 30 min 30 C, 0.6% agarose 1x TBE 4 C; NMR: 0.1 M NaCl, 0.03 mM TCEP, 15 mM; conditions: protein: recombinant; tags: His tag (pET28a, TALON purified); label: 5'-FAM strand 1; 5' overhang 1 nt (strand 1)
[2] = target: T1, TDG (thymine DNA glycosylase); test: EMSA; Hill 1.8; EMSA: 5 nM substrate, 100 mM NaCl, 2.5 mM MgCl2, 10 mM Tris-HCl pH 7.5, 5% glycerol, 30 min 30 C, 0.6% agarose 1x TBE 4 C; NMR: 0.1 M NaCl, 0.03 mM TCEP, 15 mM; conditions: protein: recombinant; tags: His tag (pET28a, TALON purified); label: 5'-FAM strand 1; blunt; G-UF pair intended
[3] = target: T1, TDG (thymine DNA glycosylase); test: EMSA; Hill 4.9; EMSA: 5 nM substrate, 100 mM NaCl, 2.5 mM MgCl2, 10 mM Tris-HCl pH 7.5, 5% glycerol, 30 min 30 C, 0.6% agarose 1x TBE 4 C; NMR: 0.1 M NaCl, 0.03 mM TCEP, 15 mM; conditions: protein: recombinant; tags: His tag (pET28a, TALON purified); label: 5'-FAM strand 1; blunt
[4] = target: T1, TDG (thymine DNA glycosylase); test: EMSA; Hill 2.7; EMSA: 5 nM substrate, 100 mM NaCl, 2.5 mM MgCl2, 10 mM Tris-HCl pH 7.5, 5% glycerol, 30 min 30 C, 0.6% agarose 1x TBE 4 C; NMR: 0.1 M NaCl, 0.03 mM TCEP, 15 mM; conditions: protein: recombinant; tags: His tag (pET28a, TALON purified); label: 5'-FAM strand 1; blunt
[5] = target: T1, TDG (thymine DNA glycosylase); test: EMSA; Hill 4.5; EMSA: 5 nM substrate, 100 mM NaCl, 2.5 mM MgCl2, 10 mM Tris-HCl pH 7.5, 5% glycerol, 30 min 30 C, 0.6% agarose 1x TBE 4 C; NMR: 0.1 M NaCl, 0.03 mM TCEP, 15 mM; conditions: protein: recombinant; tags: His tag (pET28a, TALON purified); label: 5'-FAM strand 1; blunt
[6] = target: T1, TDG (thymine DNA glycosylase); test: EMSA; Hill 2.0; EMSA: 5 nM substrate, 100 mM NaCl, 2.5 mM MgCl2, 10 mM Tris-HCl pH 7.5, 5% glycerol, 30 min 30 C, 0.6% agarose 1x TBE 4 C; NMR: 0.1 M NaCl, 0.03 mM TCEP, 15 mM; conditions: protein: recombinant; tags: His tag (pET28a, TALON purified); label: 5'-FAM strand 1; blunt
[7] = target: T1, TDG (thymine DNA glycosylase); test: EMSA; Hill 3.0; EMSA: 5 nM substrate, 100 mM NaCl, 2.5 mM MgCl2, 10 mM Tris-HCl pH 7.5, 5% glycerol, 30 min 30 C, 0.6% agarose 1x TBE 4 C; NMR: 0.1 M NaCl, 0.03 mM TCEP, 15 mM; conditions: protein: recombinant; tags: His tag (pET28a, TALON purified); label: 5'-FAM strand 1; blunt
[8] = target: T1, TDG (thymine DNA glycosylase); test: EMSA; Hill 2.3; EMSA: 5 nM substrate, 100 mM NaCl, 2.5 mM MgCl2, 10 mM Tris-HCl pH 7.5, 5% glycerol, 30 min 30 C, 0.6% agarose 1x TBE 4 C; NMR: 0.1 M NaCl, 0.03 mM TCEP, 15 mM; conditions: protein: recombinant; tags: His tag (pET28a, TALON purified); label: 5'-FAM strand 1; blunt
[9] = target: T1, TDG (thymine DNA glycosylase); test: EMSA; Hill 6.1; EMSA: 5 nM substrate, 100 mM NaCl, 2.5 mM MgCl2, 10 mM Tris-HCl pH 7.5, 5% glycerol, 30 min 30 C, 0.6% agarose 1x TBE 4 C; NMR: 0.1 M NaCl, 0.03 mM TCEP, 15 mM; conditions: protein: recombinant; tags: His tag (pET28a, TALON purified); label: 5'-FAM strand 1; 5' overhang 1 nt (strand 1)
[10] = target: T1, TDG (thymine DNA glycosylase); test: EMSA; EMSA: 5 nM substrate, 100 mM NaCl, 2.5 mM MgCl2, 10 mM Tris-HCl pH 7.5, 5% glycerol, 30 min 30 C, 0.6% agarose 1x TBE 4 C; NMR: 0.1 M NaCl, 0.03 mM TCEP, 15 mM; conditions: protein: recombinant; tags: His tag (pET28a, TALON purified); blunt

T1 sequence (Q13569 whole entry): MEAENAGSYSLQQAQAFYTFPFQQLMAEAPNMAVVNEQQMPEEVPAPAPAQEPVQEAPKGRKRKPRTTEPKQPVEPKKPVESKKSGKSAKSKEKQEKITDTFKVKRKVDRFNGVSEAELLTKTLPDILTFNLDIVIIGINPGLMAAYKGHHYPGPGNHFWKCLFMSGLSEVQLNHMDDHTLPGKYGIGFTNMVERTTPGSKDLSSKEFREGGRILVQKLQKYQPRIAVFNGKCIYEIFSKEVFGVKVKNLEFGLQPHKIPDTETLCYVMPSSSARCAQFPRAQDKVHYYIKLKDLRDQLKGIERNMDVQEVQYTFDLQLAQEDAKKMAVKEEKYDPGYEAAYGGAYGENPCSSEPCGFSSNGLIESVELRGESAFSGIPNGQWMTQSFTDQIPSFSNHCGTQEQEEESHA

B1: D2-C (dsDNA)
DNA 1: TGTGTCACCACTGCTCACGTACAGAGCTG
DNA 2: CAGCTCTGTACGTGAGCAGTGGTGACAC
- Kd [1]: 47 nM

B2: D1-UF (dsDNA)
DNA 1: TGAGGATGTATATATCTGAUGCGCCGGTGGAGC
DNA 2: GCTCCACCGGCGCGTACGATATATACATCCTCA
modifications: 2'-deoxy-2'-fluoroarabinouridine (UF) at strand 1 pos 20
- Kd [2]: 32 nM

B3: H1-5fC (DNA:RNA)
DNA: B2 DNA 1 with U20C
RNA: GCUCCACCGGCGCGUACGAUAUAUACAUCCUCA
modifications: 5-formylcytosine at strand 1 pos 20; strand 2 RNA
- Kd [3]: 60 nM

B4: H1-5caC (DNA:RNA)
DNA: B2 DNA 1 with U20C
RNA: B3 RNA
modifications: 5-carboxycytosine at strand 1 pos 20; strand 2 RNA
- Kd [4]: 31 nM

B5: H1-C (DNA:RNA)
DNA: B2 DNA 1 with U20C
RNA: B3 RNA
modifications: strand 2 RNA
- Kd [5]: 67 nM

B6: D1-5caC (dsDNA)
DNA 1: B2 DNA 1 with U20C
DNA 2: B2 DNA 2
modifications: 5-carboxycytosine at strand 1 pos 20
- Kd [6]: 25 nM

B7: D1-5fC (dsDNA)
DNA 1: B2 DNA 1 with U20C
DNA 2: B2 DNA 2
modifications: 5-formylcytosine at strand 1 pos 20
- Kd [7]: 56 nM

B8: D1-C (dsDNA)
DNA 1: B2 DNA 1 with U20C
DNA 2: B2 DNA 2
- Kd [8]: 43 nM

B9: H2-C (DNA:RNA)
DNA: TGTGTCACCACTGCTCACGTACAGAGCTG
RNA: CAGCUCUGUACGUGAGCAGUGGUGACAC
modifications: strand 2 RNA
- Kd [9]: 57 nM

B10: TCF21-DNA (unmodified) (dsDNA)
DNA 1: TCCTAGTGTCCACCAAATTCCTCAGCGCTCGCTCACCCTCCTCTACGGCCACGACTCTGGGAGTG
DNA 2: CACTCCCAGAGTCGTGGCCGTAGAGGAGGGTGAGCGAGCGCTGAGGAATTTGGTGGACACTAGGA
- Kd [10]: 49 nM
